Experimental findings from patent US20220251518A1 (published 2022) are described below.

A word on the Kd: it is the constant that tells how readily two partners part at equilibrium. A lower Kd goes with higher affinity.

This test has as its target T1, Aβ1-42, monomer and/or protofibrils (form not told for the result) (human, UniProt P05067 672-713).
T1 construct: domain: amyloid beta (Aβ) 1-42 peptide; also called Aβ1-42 peptide or protofibrils; mixture of Aβ1-42 peptide (monomer) and protofibrils
Put plainly: BLI (Octet RED 96), antibody captured on anti-rat IgG probe; monomer or protofibrils not told. (Biolayer interferometry detects binding as a change in optical thickness at a sensor tip.)

T1 sequence (P05067 672-713 limits assumed): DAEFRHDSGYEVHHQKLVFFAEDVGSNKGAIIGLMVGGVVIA

B1: monoclonal antibody 11G10 (antibody, V domains shown)
VH: EVQLQQSGAEIVKPGASVKLSCKASGYTFTSYWMHWVKQRPGQGLEWIGEIDPSDSYTNYNQKFKGKATLTVDKSSSTAYMQLRSLTSEDSAVYYCARSFHGNLFVYWGQGTLVTVSA
VL: QIVLTQSPAIMSASPGEKVTITCSASSSVSYMHWFQQKPGTSPKLWIYSTSNLATGVPARFSGSGSGTSYSLTISRMEAEDAATYYCQQRSSYPLTFGAGTKLEIK
B1 gave a dissociation constant (Kd) of 1 pM.
